The supplement of paper PMC9170038

Columns and labels:
MS2 coat protein [1] = assay: apparent KD of MS2 coat protein, switch ON state; designed switch direction (-1 OFF switch, 1 ON switch): -1; higher = weaker reporter binding; details: FMN input: 0 or 200 uM; Eterna round: R93 (includes R88 designs)
Procedure, shortened: (§1)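 Designed RNA switches were transcribed on-chip from Illumina sequencing clusters. SNAP-549-labelled MS2 coat protein was titrated onto them in twofold steps from 0.7 or 1.5 nM to 3 µM in 100 mM Tris-HCl pH 7.5, 80 mM KCl, 4 mM MgCl2, either without or with constant ligand. Apparent KD reflects the per-design median of normalised cluster binding-curve fits.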

MS2 coat protein [2] = assay: apparent KD of MS2 coat protein, switch OFF state (with FMN for OFF switches, without FMN for ON switches); designed switch direction (-1 OFF switch, 1 ON switch): -1; higher = weaker reporter binding; details: FMN input: 0 or 200 uM; Eterna round: R93 (includes R88 designs)
Procedure, shortened: as §1

Row | Sequence | apparent KD of MS2 coat protein (MS2 coat protein [1]) | apparent KD of MS2 coat protein (MS2 coat protein [2])
1 | AUAAAACAUGAGGAUCACCCAUGUGAGGAUAUAGGAAACAAACAAACAAACAAACAAACUAGAAGGCACAAUAA [Amethyst 10] | 13 nM | 16.7 nM
2 | AUAAAACAUGAGGAUCACCCAUGUGAGGAUAUGCGAAAAAAAAAAAGAAAAAAAAAAAGCAGAAGGCACAAUAA [Amethyst 43] | 32.8 nM | 34.9 nM
3 | AUAAACGGAGGAUAUACAUGAGGAUCACCCAUGUAAAAAAAAAAAAGUUCCUCAAAAAGUAGAAGGUCGAAUAA [JR_Exc003_Sub012] | 15.5 nM | 13 nM
4 | AUAAAGACAGGAUAUACAUGAGGAUCACCCAUGUAAAAAAAAAAAAGUUCCUCAAAAAGUAGAAGGGUCAAUAA [JR_Exc003_Sub014] | 28.4 nM | 119 nM
5 | AUAAAGUGAGGAUAUACAUGAGGAUCACCCAUGUAAGAAAUAAAAUAAAUAAAGGGAAGUAGAAGGCACAAAUA [Denovo 1] | 35.8 nM | 41.3 nM
6 | AUAAAUCGAGGAUAUACAUGAGGAUCACCCAUGUAAAUAAAUAAAUAAAACUCCACAAGUAGAAGGCGAAAUAA [JR_Exc003_Sub020] | 23.8 nM | 20.8 nM
7 | AUAAGAGCAGGAUAUACGUAUAUGAUGCCAGGACCGCGUCCACAUGAGGAUCACCCAUGUAGAAGGGCUUGAAA [Disoleve] | 35.7 nM | 19.2 nM
8 | AUAAUGAGAGGAUAUACAUGAGGAUCACCCAUGUAAUUAAAAAGGAGAGAAACAAUACGUAGAAGGCUCAUUUA [JR_Exc003+Sub601] | 21.6 nM | 50.6 nM
9 | AUAGUACAUGAGGAUCACCCAUGUCAGGAUAUCGGAUAUGACAUGAAAAACAUGUUAACGAGAAGGGACUAUAA [EX1 Malc#19] | 26.2 nM | 36.6 nM
10 | AUCUACCUAGGAUAUACAUGAGGAUCACCCAUGUACAGUUUCAACUAGGGAUACUCACGUAGAAGGAGGUAGAU [JR_Exc003_Sub1210] | 34.8 nM | 21.2 nM
11 | AUUAAGUGAGGAUAUGAGUGAACAACAAAACAAAUAACGACUCAGAAGGCACAUGAGGAUCACCCAUGUAUAAA [May 69] | 31.7 nM | 28.7 nM
12 | CAAAGGUGAGGAUAUACAGGAAUAUGACGAAAGUCAUAAAAACAUGAGGAUCACCCAUGUAGAAGGCACCACAA [E2 64% 3] | 37.4 nM | 57.3 nM
13 | CACGUACAUGAGGAUCACCCAUGUUAGGAUAUGCCGAAAAAAAAAAAAAAAAAAAUCAGCAGAAGGAACGAAAC [Bilbo Confounded 19 - Jieux - Exclusion 1] | 40.2 nM | 36 nM
14 | CCAAACGGAGGAUAUACAAAUUAAGGAAAAAAACGCGAAAAACAUGAGGAUCACCCAUGUAGAAGGCCGAAAAA [Ex 2 #2] | 20.3 nM | 18.5 nM
15 | CCAAAGUGAGGAUAUACGCGAACAAAAAAAAAAAAGAAAGCGUAGAAGGCACAUGAGGAUCACCCAUGUCCAGG [Alfred 64% 1] | 41 nM | 99.3 nM
16 | CCCAUGUCAGGAUAUCAGUAGUAAAAAAAAAAAAUUACUACUGAGAAGGGACAUGAGGAUCACCCAUGUCAAAA [EX4 315: Super Stable 15] | 80.2 nM | 21 nM
17 | CCUAAACAUGAGGAUCACCCAUGUGAGGAUAUGAUGCGAAUAAAGAAAGAAGAAAGCAUCAGAAGGCACAUAGG | 41.1 nM | 283 nM
18 | CCUGUGUGAGGAUAUGGUGUAAAAAAAAAAAAAUAGCUCCUCCAGAAGGCACAUGAGGAUCACCCAUGUCGUGG [Jolly's Folly 18 - Jieux - Exclusion 4] | 32.9 nM | 65.8 nM
19 | CGCAAGUCAGGAUAUUCGACAGGUAAAUCAGUAGAUCAGAAGAAGAAGGGACAUGAGGAUCACCCAUGUAAGUA [JR_Exc004_Sub405] | 41.1 nM | 24.3 nM
20 | CUCAAGUUAGGAUAUCCAAGAAAAGAAGAGAAAGAAAAGAAGGAGAAGGAACAUGAGGAUCACCCAUGUAAGAA [EteRNA is fun!] | 32.8 nM | 38.5 nM
21 | CUCAUGUCAGGAUAUGUAGCAUGAUACGAAAGUAUCAUGCUACAGAAGGGACAUGAGGAUCACCCAUGUCCAAA [Ex4: 944] | 119 nM | 37.7 nM
22 | CUCAUGUGAGGAUAUGUACAGAAAAAAAUGGGUGAAACUGUACAGAAGGCACAUGAGGAUCACCCAUGUGCAAA [EX4 377: S S Pseudoknot 2] | 19.1 nM | 21.4 nM
23 | CUCUAGUAAGGAUAUGGAAGAAAAGAAAAGAAAGAAAAGAACCAGAAGGUACAUGAGGAUCACCCAUGUAAGAA [EteRNA is fun!] | 48.9 nM | 23.4 nM

Row | Sequence | apparent KD of MS2 coat protein (MS2 coat protein [1]) | apparent KD of MS2 coat protein (MS2 coat protein [2])
24 | CUCUAGUGAGGAUAUACAAGAAAAGAAGAGAAAGAAAAGAAGUAGAAGGCACAUGAGGAUCACCCAUGUAAGAA [EteRNA is fun!] | 24.7 nM | 33.6 nM
25 | CUCUUGUCAGGAUAUGAAAGAAAAGAAGAGAAAGAAAAGAAUCAGAAGGGACAUGAGGAUCACCCAUGUAAGAA [EteRNA is fun!] | 43.6 nM | 77.9 nM
26 | GAAAAACAUGAGGAUCACCCAUGUAAGGAUAUGCUGAAAAAACACUGGAAACAGUGCAGCAGAAGGUACAAAAG [Mat - Exclusion 1 - Eli mod - D100] | 20.3 nM | 73.3 nM
27 | GAAAAACAUGAGGAUCACCCAUGUCAGGAUAUGUAGAAAAAGAAAAAAAGAAAAGAAAACAGAAGGGACAAAAG [Mat - Same state - Mayanna Mod - D105] | 32.6 nM | 38.5 nM
28 | GAAAAGAAAGGAUAUAAAACAGAGGAUAUACAUAAAUAAAAACAUGAGGAUCACCCAUGUAGAAGGCUGAAAAG [Meechl Ex2 R2 m2] | 33.2 nM | 20.5 nM
29 | GAAAAGUCAGGAUAUGCAGAAAAAAAAACGAAAAAAAAACUGCAGAAGGGACAUGAGGAUCACCCAUGUUAAAG [Mat - Exclusion 4 - Mayanna - D128] | 50.9 nM | 33.1 nM
30 | GAAAUACGAGGAUAUACAUGAGGAUCACCCAUGUCAAAAAAUGACUACACAAAAGAAAGUAGAAGGCGUAAAAG [Mat - Exclusion 3 - Mayanna mod - D128] | 28.6 nM | 38.4 nM
31 | GAAGAACAUGAGGAUCACCCAUGUCAGGAUAUGCACUACGGAAUAAUAAGUAAUGGAAGUAGAAGGGACAAGAA [Ex 1 May 53] | 26.2 nM | 26.4 nM
32 | GCUUGGGAAGGAUAUACAUGAGGAUCACCCAUGUGAGAGAAAAAAGUGAGAAAGAAAAGUAGAAGGUCCUGAGG [salish99-ex3-108] | 71.2 nM | 152 nM
33 | GGAAAGUGAGGAUAUGCAUAACAAAUACAAAGAGAAACAAAGCAGAAGGCACAUGAGGAUCACCCAUGUAAACA [Exclusion 4 Float] | 27.3 nM | 22.7 nM
34 | GGGAUGUCAGGAUAUGUGUAAAGAAUAAAACAAAUAACAACACAGAAGGGACAUGAGGAUCACCCAUGUUACCC [May 39] | 17 nM | 15.4 nM
35 | GGGCCACAUGAGGAUCACCCAUGUAAGGAUAUGCUAGGGAGGGAAAAAAUUUCGCCAGGCAGAAGGUACUAAAG [Janelle Amethyst 18 Mod 7 - Jieux - Exclusion 1] | 23.6 nM | 31.4 nM
36 | GGGUAACAUGAGGAUCACCCAUGUGAGGAUAUUCUAGGGAUGGAAGCUCGGCCGGCCAGGAGAAGGUACUAAAG [Janelle Amethyst 18 Mod 20 - Jieux - Exclusion 1] | 26.3 nM | 36.8 nM
37 | GGUUGGCGAGGAUAUACAUGAGGAUCACCCAUGUGAGAGAAAAAAGUGAGAAAGAAAAGUAGAAGGCGCUGACU [salish99-ex3-04] | 54.5 nM | 262 nM
38 | GGUUGGCGAGGAUAUACAUGAGGAUCACCCAUGUGAGAGAAAAAAGUGAGAAAGAAAAGUAGAAGGUGUUGACG [salish99-ex3-70] | 55.4 nM | 56.7 nM
39 | GGUUGGCGAGGAUAUACAUGAGGAUCACCCAUGUGAGAGAAAAAAGUGAGGAGGGAAAGUAGAAGGCGCUGACG [salish99-ex3-16] | 27.3 nM | 41.9 nM
40 | GGUUGGCGAGGAUAUACAUGAGGAUCACCCAUGUGAGAGAUAAAAGUGAGAAAGAAAAGUAGAAGGCGCUGACG [salish99-ex3-45] | 29.2 nM | 65 nM
41 | GGUUGUGUAGGAUAUACAUGAGGAUCACCCAUGUGAGAGAAAAAAGUGAGAAAGAAAAGUAGAAGGACGUGACG [salish99-ex3-72] | 45.3 nM | 42.7 nM
42 | GUCCGACAUGAGGAUCACCCAUGUAAGGAUAUGUAUCCUUCGGCCCGAACCAGAGGAAGCAGAAGGUACAGGGA [Oneserqu] | 24.8 nM | 20.9 nM
43 | GUCCUACAUGAGGAUCACCCAUGUCAGGAUAUGUAGCGUCCGAGCGAAAAGGCCCGGAGCAGAAGGGACAGGUG [Maisbia] | 16.1 nM | 20.1 nM
44 | GUGUACAGAGGAUAUACAUGAGCAUGGAAACAUGCAGGAUCACAUGAGGAUCACCCAUGUAGAAGGCUGUACAC [Ex2: 732] | 35.1 nM | 12 nM
45 | UAAAAGUGAGGAUAUUCGGAUAGGAAAACGAAAACCUAUCCGAAGAAGGCACAUGAGGAUCACCCAUGUGGAAU [Mat - Exaclusion 4 - Eli mod - D48] | 31.3 nM | 36 nM
